{"source": "patent US20230399393A1", "about": "“METHODS TO EXTEND HEALTH-SPAN AND TREAT AGE-RELATED DISEASES” (National University of Singapore, priority 2020, published 2023)", "key": {"[1]": {"test_system": "Primary human hepatocytes", "experiment": "Hepatocytes stimulated with IL-11, BSA or palmitate with X203, X209 or IgG, western blot", "format": "cell-based", "details": "24 hours; antibody 2 μg/ml; IL11 10 ng/ml or palmitate 0.5 mM", "procedure": "FIG. 20. Western blot image showing the levels of p-ERK, ERK, p-P90RSK, P90RSK, p-LKB1, LKB1, p-AMPK, AMPK, p-Acetyl-CoA Carboxylase (p-ACC), Acetyl-CoA Carboxylase (ACC), p-mTOR, mTOR, p-p70S6K, p70S6K, p-S6RP, S6RP in primary human hepatocytes that are unstimulated (BL) or stimulated for 24 hours with either IL11, 0.5% BSA, or palmitate (saturated fatty acid) in the presence of X203, X209, or IgG (11E10) isotype control. IL11 (10 ng/ml), IgG/X203/X209 (2 μg/ml), palmitate (0.5 mM) conjugated in free BSA (0.5% BSA solution) in the ratio of 6:1.\nPrimary human hepatocytes (stimulated with IL-11, BSA or palmitate, or unstimulated) were treated with X203 (anti-IL-11 antagonist antibody) and X209 (anti-IL-11Rα antagonist antibody). […] Treatment with X203 or X209 essentially reverses the effect of palmitate stimulation on these markers to the levels observed in the unstimulated control."}, "C57Bl/6J mice [2]": {"test_system": "C57Bl/6J mice", "experiment": "In vivo administration of anti-IL11 (X203) to old mice, summary of multi-morbidity", "parameters": "species or system mouse", "details": "vs IgG", "excerpt": "Furthermore, the data disclose that: • Administration of MEK1/2 inhibitor U0126 to cells stimulated with IL11 prevents ERK-mediated inactivation of LKB1/AMPK that stops IL11-induced mTORC1/P70S6K activation. • Administration of anti-IL11 (X203) vs IgG control to mice aged 55-110 weeks old results in lesser ERK activation, restored LKB1/AMPK activity and reduced mTORC1 activity and senescence markers (p16/p21). This is seen across tissues. • Mice deleted for IL11RA1 at 110 weeks old mirror the effects seen with X203 administration and have a signaling profile more similar to young mice, across tissues. • Administration of X203 vs IgG to old mice improves multi-morbidity with better serum levels of fats, glucose, lesser tissue fibrosis, better kidney function, reduced tissue inflammation, reduced obesity and lesser frailty. • Administration of X203 vs IgG to old mice improves markers of inflammation (CCL2, CCL5, TNFa, IL1b, IL11 and IL6)—an altered intercellular communication Hallmark of ageing—across tissues, including liver, kidney and skeletal muscle.\nMale and female C57Bl/6J mice aged 46 weeks were purchased from the Jackson Laboratory. Mice were randomised on a 1:1 basis to receive either 40 mg/kg of X203 or an isotype control IgG antibody (11E10), every 3 weeks (IP), starting from 55 weeks of age. Mice were sacrificed at 110 weeks of age for blood and tissues collection. […]"}, "C57Bl/6J mice [3]": {"test_system": "C57Bl/6J mice", "experiment": "Gastrocnemius and soleus muscle weights", "format": "in vivo, mouse", "details": "age 110 weeks; vs IgG control", "procedure": "From age 55 weeks (human equivalent of ˜45 years old (i.e. middle age)) to age 110 weeks (human equivalent of ˜75 years old), mice were administered with 40 mg/kg of either X203 or isotype-matched control IgG via intra-peritoneal injection every 3 weeks.\nMice also underwent body-composition assessment via echo MRI both at baseline (age 55 weeks) and at 108-109 weeks. This enabled calculation of the change in body fat mass and lean (muscle) mass in the X203 and IgG control treatment groups. Gastrocnemius and soleus muscles were also harvested from the mice at age 110 weeks and their weights were recorded. Data were analysed by 2-way ANOVA."}}, "data": [{"molecule": "X203: mouse anti-mouse IL-11 IgG antagonist antibody; VH SEQ ID NO:22, VL SEQ ID NO:23 (antibody, V domains shown) VH: EVQLQQSGPELVKPGASVKIPCKASGYTFTDYNMDWVKQSHGKSLEWIGDINPHNGGPIYNQKFTGKATLTVDKSSSTAYMELRSLTSEDTAVYYCARGELGHWYFDVWGTGTTVTVSS VL: DIVLTQSPASLAVSLGQRATISCRASKSVSTSGYSYIHWYQQKPGQPPKLLIYLASNLDSGVPARFSGSGSGTDFTLNIHPVEEEDAATYYCQHSRDLPPTFGGGTKLEIK", "values": [{"measurement": "levels of p-AMPK and p-ACC", "setting": "[1]", "value": "increase"}, {"measurement": "levels of phosphorylated markers p-ERK, p-p90RSK, p-LKB1, p-mTOR, p-p70S6K and p-S6RP", "setting": "[1]", "value": "reduces"}, {"measurement": "multi-morbidity (serum levels of fats, glucose, tissue fibrosis, kidney function, tissue inflammation, obesity, frailty)", "setting": "C57Bl/6J mice [2]", "value": "improves"}, {"measurement": "weight of gastrocnemius muscle as a proportion of body weight", "setting": "C57Bl/6J mice [3]", "value": "greater"}, {"measurement": "weight of soleus muscle as a proportion of body weight", "setting": "C57Bl/6J mice [3]", "value": "greater"}]}]}
